Measured values published in the nanobody polyreactivity screen of Harvey et al. (2022).

Test: yeast display, Sf9 membrane polyspecificity reagent, FACS + sequencing; frameworks hold sequencing errors
Method in brief: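 In a synthetic yeast display library (Saccharomyces cerevisiae BJ5465), nanobody expression was induced with galactose for 36–48 hours. FACS gates were set low and high (top ~1%) using anti-HA fluorescence for expression and streptavidin fluorescence for binding of the Sf9 membrane reagent. Each polyreactivity label is drawn from the gate of origin.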

| Sequence | polyreactivity (PSR sort gate) |
| --- | --- |
| QVQLVESGGGLVQAGGSLRISCAASGNICSWYAMGWSRQAPGKERELVAAIRWSSGSTYYADSVKWRFTISRDNAKNTVYLQMNSMKPEDTAVYYCAAVIKGWGQGTQVTVSS | high polyreactivity |
| QVQLVESGGGLVQAGGSLRISCAASGNTFDYYTMGWYRQAPGKERDLVASIDWSTTTTYYADSVKGRFTISRDNAKTTVYLQMKSLKPEDTAVYYCNTVYDFYHLGLYSGFRYHYWGQGTQVTVSS | low polyreactivity |
| QVQLVESGGGLVQAGGSLRISCAASGRICAYNAMGWYRQAPGKERELVAAITWSGGTTYYADSVKGRCTISRDNAKNSVYFQRNSLKPEVTAVYYCAATVGAASRYYYWAQGTQVTVSS | high polyreactivity |
| QVQLVESGGGLVQAGGSLRISCAASGRIFDLYAMGWYRQPPGKERELVASISSDGSTNYADSVKGRFTISRDNAKNTVYLQMNSLKPEDTAVYYCATRKGRRYGYNYWGQGTQVTVSS | high polyreactivity |
| QVQLVESGGGLVQAGGSLRISCAASGRIFDRYVLGWYRQAPGKERELVAAISSGGSTYYADSVKGRFTISRDNAKNTVYLQMNSLKPEDTAVYYCAADRRSKYDYWGQGTQVTVSS | low polyreactivity |
| QVQLVESGGGLVQAGGSLRISCAASGRIFDYNVMGWYRQAPGKERELVAGISSGGSTYYADSVKGRFTISRDNAKNTVYLQMNSLKPEDTAVYYCAARGRPYRGYGYWGQGTQVTVSS | high polyreactivity |
| QVQLVESGGGLVQAGGSLRISCAASGRIFGENAMGWYRQAPGKERELVAAIRFSSGSTYYADSVKGRFTISRDNAKNTVYLQMNSLKPEDTAVYYCNADGWYALYEWLAVSGYYWGQGTQVTVSS | low polyreactivity |
| QVQLVESGGGLVQAGGSLRISCAASGRIFLGNAMGWYRQAPGKERELVAAITNGGGSTYYADSVKGRFTISRDNAKNTVYLQMNSLKPEDTAVYYCARGYKKSVQRFEYWGQGTQVTVSS | high polyreactivity |
| QVQLVESGGGLVQAGGSLRISCAASGRIFPVNAMGWYRQAPGKERELVARISWRGGTYYADSVKGRFTISRDNAKNTVYLQMNSLKPEDTAFYYCAATLASTSYWYHYGYWGQGTQVTVSS | high polyreactivity |
| QVQLVESGGGLVQAGGSLRISCAASGRIFRAYAMGWYRQAPGKERELVADIRSTGSTNYADSVKGRFTISRDNAKNTVYLQMNSLNPEDTAGYYCAARWRSLRFGSGFEYWGQGTQVTVSS | high polyreactivity |
| QVQLVESGGGLVQAGGSLRISCAASGRIFTRNAMGWYTQAPGNETELVAAITSGGSTNYADSVKGRFTISRDNAKNTVYLQMNSLKPEDTAVYFCYAVYYPYRIWGRVRPSYGYWGQGTQVTVSS | high polyreactivity |
| QVQLVESGGGLVQAGGSLRISCAASGRIFYFNTMGWYRQAPGKERELVAAISLSGGRTYYADSVKGRFTISRDNAKNTVYLQMNSLKREDSAVYYCNAVARSRSRDTSKGDYWGQGTQVTVSS | high polyreactivity |
| QVQLVESGGGLVQAGGSLRISCAASGRIFYGNAMGWYRQAPGKERELVAAIRRSGGSTYYADSVKGRFTISRDNAKNTVYLQMNSLKPEDTAVYYCNVDSGEFDYVWVYTYDYWGQGTQVTVSS | low polyreactivity |
| QVQLVESGGGLVQAGGSLRISCAASGRIFYYNAMGWYRQAPGKERELVAAITSGGSTNYADSVKGRFTISRDNAKNTVYLQMNSLKPEDTAVYYCAADYYYYVAGVHYDYWGQGTQVTVSS | low polyreactivity |
| QVQLVESGGGLVQAGGSLRISCAASGRTFARNSMGWYRQAPGKERELVATITIGGRTYYADSVKGRFTISRDNAMNTVYLQMNSLKPEDTAVYYCAKRISGYRGDYWGQGTQVTVSS | high polyreactivity |
| QVQLVESGGGLVQAGGSLRISCAASGRTFDSYAMGWYIQAPGKEREFVAAISYSGTSTYYADSVKGRFTISRDYAKNTVYLQMNSLIPEDTAVYYCAKEFIFRLWGQGTQVTVSS | low polyreactivity |
| QVQLVESGGGLVQAGGSLRISCAASGRTFHYYDMGWYRQAPGKERELVAAISSTAGSTYYADSVKGRFTISRDNAQNTVHLQMNSLKPEDTAVYYCAARQFGYYHVRNEYWGQGTQVTVSS | high polyreactivity |
